Laboratory results from patent publication US9266964.
Positions count from the first letter of the chain named.

B1: M10-F10 (Fab, V domains shown)
VH: EVQLLESGGGLVQPGGSLRLSCAASGFTFSFYNMNWVRQAPGKGLEWVSSISPSGGETNYADSVKGRFTISRDNSKNTLYLQMNSLRAEDTAVYYCARGGGAYRNNWWGGFDIWGLGTMVTVSS
VL: DIQMTQSPSSLSASVGDRVTITCRASQSISVYLNWYQHKPGKAPKLLIYGASNLQFGVPSRFSGSGYGTDFTLTISSLQPEDFATYHCQQTFSLFTFGGGTKVEIK
notes: Printed HC runs from VH into the start of CH1
B2: M38-F02 (Fab, V domains shown)
VH: EVQLLESGGGLVQPGGSLRLSCAASGFTFSYYMMVWVRQAPGKGLEWVSYIYSSGGHTVYADSVKGRFTISRDNSKNTLYLQMNSLRAEDTAVYYCARDLFLYDFWSKGAFDIWGQGTMVTVSS
VL: QSVLTQPPSVSVSPGQTASITCSGEKLGDKYVSWYQQKPGQSPSLVICEDSRRPSGIPERFSGSNSGNTATLTISGAQPMDEADYYCQAWDSSTAIFGPGTKVTVL
notes: as for B1
B3: M7-B04 (Fab, V domains shown)
VH: EVQLLESGGGLVQPGGSLRLSCAASGFTFSWYSMVWVRQAPGKGLEWVSSISPSGGLTNYADSVKGRFTISRDNSKNTLYLQMNSLRAEDTAVYYCARHTAARPFYYYYMDVWGKGTTVTVSS
VL: QSALTQPASVSGSPGQSITISCTGTNSDVGNYNLVSWYQQHPGEAPKLLIYEVNKRPSGVSNRFSGSKSGNTASLTISGLQAEDEADYLCCSYAGNRNFYVFGAGTKVTVL
notes: as for B1
B4: M7-E07 (Fab, V domains shown)
VH: EVQLLESGGGLVQPGGSLRLSCAASGFTFSWYLMIWVRQAPGKGLEWVSYIYPSGGFTYYADSVKGRFTISRDNSKNTLYLQMNSLRAEDMAVYYCARTEGPLSWGYGMDVWGQGTTVTVSS
VL: not shown
notes: as for B1
B5: M27-E05 (Fab, V domains shown)
VH: B4 VH
VL: not shown
notes: as for B1
B6: X81-B01 (antibody, V domains shown)
VH: EVQLLESGGGLVQPGGSLRLSCAASGFTFSHYLMTWVRQAPGKGLEWVSYISPSGGHTIYADSVKGRFTISRDNSKNTLYLQMNSLRAEDTAVYYCARVARGIAARSRTSYFDYWGQGTLVTVSS
VL: EIVLTQSPGTLSLSPGERATLSCRTSQFVNSNYLAWYQQKPGQAPRLLIYGASSRATGIPDRFSGSGSGTDFTLTISRLEPEDFAVYYCQQSSRTPWTFGQGTKVEIK
notes: No variable domains are printed under the name X81-B01; also called germlined, codon optimized IgG version of X63-G06
B7: M6-D09 (Fab, V domains shown)
VH: EVQLLESGGGLVQPGGSLRLSCAASGFTFSFYYMVWVRQAPGKGLEWVSVIYPSGGITVYADSVKGRFTISRDNSKNTLYLQMNSLRAEDTAVYYCARDKWAVMPPYYYYAMDVWGQGTTVTVSS
VL: DIQMTQSPSSLSASVGDRVTITCRASQSIRNYLNWYQQKPGKAPNLLIYAASTLQSGVPARFSGSGSGTDFTLTISSLQPEDFATYYCQQLSGYPHTFGQGTKLEIK
notes: Printed HC runs from VH into the start of CH1; also called M06-D09; 559A-M06-D09
B8: M8-A09 (Fab, V domains shown)
VH: EVQLLESGGGLVQPGGSLRLSCAASGFTFSTYFMLWVRQAPGKGLEWVSSIYPSGGNTVYADSVKGRFTISRDNSKNTLYLQMNSLRAEDTAVYYCARAASPVRNYYYYGMDVWGQGTTVTVSS
VL: QCELTQPPSESVSPGQTANITCSGDKLGNKYAYWYQQKPGQSPVLVIYQDNNRPSGIPERFSGSNSGNTATLTISGTQAIDEANYYCQAWDSRTVVFGGGTKLTVL
notes: as for B1
B9: M35-G04 (Fab, V domains shown)
VH: EVQLLESGGGLVQPGGSLRLSCAASGFTFSYYHMSWVRQAPGKGLEWVSVISPSGGSTKYADSVKGRFTISRDNSKNTLYLQMNSLRAEDTAVYYCARGGSSDYAWGSYRRPYYFDYWGQGTLVTVSS
VL: DIQMTQSPATLSLSPGERATLSCRASQSVSSYLAWYQQKPGQAPRLLIYDASNRATGIPARFSGSGSGTDFTLTISSLEPEDFAVYYCQQRSNWPRGFTFGPGTKVDIK
notes: Printed HC runs from VH into the start of CH1; also called 559A-M35-G04; 559A-M0035-G04
B10: M29-D09 (Fab, V domains shown)
VH: EVQLLESGGGLVQPGGSLRLSCAASGFTFSWYTMVWVRQAPGKGLEWVSYIYPSGGATFYADSVKGRFTISRDNSKNTLYLQMNSLRAEDTAVYYCAMGSYDYIWGFYSDHWGQGTLVTVSS
VL: QSALTQPPTVSVSPGQTARITCSGNKLGDKYVAWYQQKPGQSPMLVIYQDTKRPSRVSERFSGSNSANTATLSISGTQALDEADYYCQAWDSSIVIFGGGTRLTVL
notes: Printed HC runs from VH into the start of CH1; also called 559A-M29-D09; 559A-M0029-D09
B11: M41-A11 (Fab, V domains shown)
VH: EVQLLESGGGLVQPGGSLRLSCAASGFTFSHYRMSWVRQAPGKGLEWVSSIYPSGGRTVYADSVKGRFTISRDNSKNTLYLQMNSLRAEDTAVYYCAKDKFEWRLLFRGIGNDAFDIWGQGTMVTVSS
VL: QSVLTQPPSVSVSPGQTASITCSGDKLGDKYTSWYQQRPGQSPVLVIYQDIKRPSGIPERFSGSNSGNTATLTISGTQAMDEADYYCQAWDSPNARVFGSGTKVTVL
notes: as for B1
B12: M29-E09 (Fab, V domains shown)
VH: EVQLLESGGGLVQPGGSLRLSCAASGFTFSWYEMGWVRQAPGKGLEWVSSIYSSGGGTMYADSVKGRFTISRDNSKNTLYLQMNSLRAEDTAVYYCARNPQYSGYDRSLSDGAFDIWGQGTMVTVSS
VL: QYELTQPPSVSVSPGQTATITCSGDNLGNKYNSWYQQKPGQSPLLVIYQDTKRPSAIPERFSGSNSGNTATLTISGTQAMDEADYYCQAWDGNVVFGGGTKLTVL
notes: as for B1
B13: X67-B03 (antibody, V domains shown)
VH: EVQLLESGGGLVQPGGSLRLSCAASGFTFSAYSMIWVRQAPGKGLEWVSYIRPSGGRTTYADSVKGRFTISRDNSKNTLYLQMNSLRAEDTAVYYCARGGLLLWSRELKSNYFDYWGQGTLVTVSS
VL: DIQMTQSPSSLSAFVGDRVTITCRASQPIDNYLNWYHQKPGKAPKLLIYAASRLQSGVPSRLSGSGFGTDFTLTISSLQPEDFGNYYCQQSYTVPYTFGGGTKVEIR
notes: Single point mutant (F to S at P2 of HC CDR3) of M142-H08; Only variable domains and the start of CH1 are printed; also called 559A-X67-B03
B14: X67-E04 (antibody, V domains shown)
VH: B13 VH with S105D
VL: B13 VL
notes: Single point mutant (F to D at P2 of HC CDR3) of M142-H08; Only variable domains and the start of CH1 are printed; also called 559A-X67-E04
B15: X67-H04 (antibody, V domains shown)
VH: B13 VH with S105E
VL: B13 VL
notes: Single point mutant (F to E at P2 of HC CDR3) of M142-H08; Only variable domains and the start of CH1 are printed; also called 559A-X67-H04
B16: X67-F10 (antibody, V domains shown)
VH: B13 VH with S105T
VL: B13 VL
notes: Single point mutant (F to T at P2 of HC CDR3) of M142-H08; Only variable domains and the start of CH1 are printed; also called 559A-X67-F10
B17: X67-D03 (antibody, V domains shown)
VH: B13 VH with S105N
VL: B13 VL
notes: Single point mutant (F to N at P2 of HC CDR3) of M142-H08; Only variable domains and the start of CH1 are printed; also called 559A-X67-D03
B18: X67-G04 (antibody, V domains shown)
VH: B13 VH with S105A
VL: B13 VL
notes: Single point mutant (F to A at P2 of HC CDR3) of M142-H08; Only variable domains and the start of CH1 are printed; also called 559A-X67-G04
B19: X67-C03 (antibody, V domains shown)
VH: B13 VH with S105M
VL: B13 VL
notes: Single point mutant (F to M at P2 of HC CDR3) of M142-H08; the printed HC is used; Only variable domains and the start of CH1 are printed; also called 559A-X67-C03
B20: X67-C09 (antibody, V domains shown)
VH: B13 VH with S105G
VL: B13 VL
notes: Single point mutant (F to G at P2 of HC CDR3) of M142-H08; Only variable domains and the start of CH1 are printed; also called 559A-X67-C09
B21: X67-F01 (antibody, V domains shown)
VH: B13 VH with S105Q
VL: B13 VL
notes: Single point mutant (F to Q at P2 of HC CDR3) of M142-H08; Only variable domains and the start of CH1 are printed; also called 559A-X67-F01
B22: M207-C05 (Fab, V domains shown)
VH: B6 VH with A100G, Y114K
VL: B6 VL with E1D, V3Q, L4M, K40T, S66T, S68Y, F84Y, A85G, V86T, K104R
B23: M209-B01 (Fab, V domains shown)
VH: B6 VH with A104V, Y111N, Y114Q
VL: B6 VL with E1D, V3Q, L4M, K40T, S66T, S68Y, F84Y, A85G, V86T, K104R
B24: M205-A12 (Fab, V domains shown)
VH: B6 VH with H31Q, L33D, T35I, P53S, H57F, I59R
VL: B6 VL with E1D, V3Q, L4M, K40T, S66T, S68Y, F84Y, A85G, V86T, K104R
B25: M203-A01 (Fab, V domains shown)
VH: B6 VH with H31N, T35A, Y50W, S52V, H57Y, I59E
VL: B6 VL with E1D, V3Q, L4M, K40T, S66T, S68Y, F84Y, A85G, V86T, K104R
B26: M208-D12 (Fab, V domains shown)
VH: B6 VH with V99L, F112Q, Y114I
VL: B6 VL with E1D, V3Q, L4M, K40T, S66T, S68Y, F84Y, A85G, V86T, K104R
B27: M205-F03 (Fab, V domains shown)
VH: B6 VH with H31S, Y32Q, L33Q, T35V, H57N, I59Y
VL: B6 VL with E1D, V3Q, L4M, K40T, S66T, S68Y, F84Y, A85G, V86T, K104R
B28: M206-H04 (Fab, V domains shown)
VH: B6 VH with H31S, L33M, T35V, Y50S, H57Y, Y60Q
VL: B6 VL with E1D, V3Q, L4M, K40T, S66T, S68Y, F84Y, A85G, V86T, K104R

Each binder was assayed against T1, human plasma kallikrein (human, UniProt P03952 20-390; P03952 391-638) (assay: apparent inhibition constant (Ki,app) against human pKal, enzyme inhibition).
T1 construct: also called pKal; human pKal
T1 sequence (P03952 20-390, chain 1 of 2): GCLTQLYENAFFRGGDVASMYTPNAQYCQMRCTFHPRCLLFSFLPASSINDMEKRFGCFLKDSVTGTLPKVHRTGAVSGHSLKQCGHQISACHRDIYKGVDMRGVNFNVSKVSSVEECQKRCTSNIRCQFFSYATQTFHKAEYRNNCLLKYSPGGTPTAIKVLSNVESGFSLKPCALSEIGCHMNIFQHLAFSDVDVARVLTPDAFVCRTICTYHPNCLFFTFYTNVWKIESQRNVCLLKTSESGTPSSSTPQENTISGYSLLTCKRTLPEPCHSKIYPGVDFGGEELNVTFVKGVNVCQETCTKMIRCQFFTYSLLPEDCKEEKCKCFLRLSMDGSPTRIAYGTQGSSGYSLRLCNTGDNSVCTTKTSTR
T1 sequence (P03952 391-638, chain 2 of 2): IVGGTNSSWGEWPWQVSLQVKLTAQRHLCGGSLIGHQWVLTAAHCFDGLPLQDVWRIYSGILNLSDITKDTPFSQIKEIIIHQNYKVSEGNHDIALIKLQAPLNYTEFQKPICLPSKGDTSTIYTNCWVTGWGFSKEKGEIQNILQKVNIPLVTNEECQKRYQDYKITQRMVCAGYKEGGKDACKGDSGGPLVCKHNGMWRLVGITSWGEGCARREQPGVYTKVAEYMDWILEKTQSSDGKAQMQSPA

Point of comparison: B19, Ki 0.7 nM. Against it:
- B1 — not separable, < 100 nM
- B2 — 20-fold higher, 14 nM
- B3 — 77-fold higher, 54 nM
- B4 — 51-fold higher, 36 nM
- B5 — 23-fold higher, 16 nM
- B6 — 3.5-fold lower, 0.2 nM
- B7 — 8.4-fold higher, 5.9 nM
- B8 — 150-fold higher, 105 nM
- B9 — 4.1-fold higher, 2.9 nM
- B10 — the same, 0.7 nM
- B11 — 19-fold higher, 13 nM
- B12 — 16-fold higher, 11 nM
- B13 — 3-fold higher, 2.1 nM
- B14 — 1.9-fold higher, 1.3 nM
- B15 — 5.1-fold higher, 3.6 nM
- B16 — 1.9-fold higher, 1.3 nM
- B17 — 7-fold lower, 0.1 nM
- B18 — 2-fold lower, 0.35 nM
- B20 — 12-fold higher, 8.6 nM
- B21 — within 1.5-fold, 0.9 nM

These binders were tested against human plasma kallikrein (human, UniProt P03952 20-390; P03952 391-638) (assay: cell-based or functional assay).
Target sequence in this assay (P03952 20-390, chain 1 of 2): as the sequence (P03952 20-390, chain 1 of 2) above
Target sequence in this assay (P03952 391-638, chain 2 of 2): as the sequence (P03952 391-638, chain 2 of 2) above

Point of comparison: B26, “% inhibition at 10 nM” value 43.7%. Against it:
- B22 — higher, 61.4%
- B23 — higher, 47%
- B24 — higher, 58.8%
- B25 — higher, 51.4%
- B27 — higher, 58.6%
- B28 — lower, 19%

The binders below were run against T1, human plasma kallikrein (assay: ELISA, biotinylated plasma kallikrein coated on microtiter plate, signal divided by streptavidin background).
From the text: Abbreviations used: "T/B" is the ELISA signal obtained using of the "target" (biotinylated plasma kallikrein) divided by the ELISA signal of the "background" (streptavidin); both of which were coated on microtiter plates. "nd" is not determined. The symbol "q" refers to the amber suppressible stop codon (TAG), which is translated as glutamine (Q) in strains of *E. coli* such as the TG1 cells that were used to express the Fab fragments.

Point of comparison: B1, “Human pKal ELISA (T/B)” value 39.2 ratio of ELISA signal on target to background (streptavidin). Against it:
- B2 — lower, 33.5 ratio of ELISA signal on target to background (streptavidin)
- B3 — lower, 4.1 ratio of ELISA signal on target to background (streptavidin)
- B4 — higher, 45.7 ratio of ELISA signal on target to background (streptavidin)
- B5 — higher, 41.3 ratio of ELISA signal on target to background (streptavidin)
- B7 — higher, 39.9 ratio of ELISA signal on target to background (streptavidin)
- B8 — lower, 5.4 ratio of ELISA signal on target to background (streptavidin)
- B9 — lower, 11.1 ratio of ELISA signal on target to background (streptavidin)
- B10 — higher, 47.5 ratio of ELISA signal on target to background (streptavidin)
- B11 — lower, 28 ratio of ELISA signal on target to background (streptavidin)
- B12 — lower, 28.8 ratio of ELISA signal on target to background (streptavidin)
